This is an account of results in patent US20250295799A1 (Zymeworks, published 2025).

To fix the notation:
B1: v40203, H18L6_LC_G34D mAb (antibody, human IgG1, kappa, V domains shown)
VH: QVQLVQSGAEVKKPGSSVKVSCKASGYTFTDYEMHWVKQAPGHGLEWIGAIDPETGDTAYNQKFKGKATLTADTSTSTAYMELSSLRSEDTAVYYCTRYFSFAYWGQGTLVTVSS
VL: EIVLTQSPATLSLSPGERATISCRSSQSLRHSNDNTYLQWYQQKPGQAPRLLIYKVSNRFSGVPARFSGSGSGTDFTLTISSLEPEDFAVYFCYQSKHVPYTFGGGTKVEIKR
B2: v40206, H18L6_LC_G34R mAb (antibody, human IgG1, kappa, V domains shown)
VH: B1 VH
VL: B1 VL with D34R
B3: v40204, H18L6_LC_G34E mAb (antibody, human IgG1, kappa, V domains shown)
VH: B1 VH
VL: B1 VL with D34E
notes: no number given for this variant
B4: v40205, H18L6_LC_G34H mAb (antibody, human IgG1, kappa, V domains shown)
VH: B1 VH
VL: B1 VL with D34H
notes: as for B3
B5: v38592, M3-H18L6 (WT) mAb (antibody, human IgG1, kappa)
heavy: not shown
light: EIVLTQSPATLSLSPGERATISCRSSQSLRHSNGNTYLQWYQQKPGQAPRLLIYKVSNRFSGVPARFSGSGSGTDFTLTISSLEPEDFAVYFCYQSKHVPYTFGGGTKVEIKRTVAAPSVFIFPPSDEQLKSGTASVVCLLNNFYPREAKVQWKVDNALQSGNSQESVTEQDSKDSTYSLSSTLTLSKADYEKHKVYACEVTHQGLSSPVTKSFNRGEC
notes: Same as v37574 but the heavy chain cDNA encodes a C-terminal lysine; also called wild-type M3-H18L6
B6: H18L6_LC_G34H mAb, v40205 (antibody, human IgG1, kappa, V domains shown)
VH: B1 VH
VL: B1 VL with D34H
notes: M3-H18L6 chains with the stated light chain point mutation, IgG1/kappa
B7: H18L6_LC_N33E mAb, v40213 (antibody, human IgG1, kappa, V domains shown)
VH: B1 VH
VL: B1 VL with N33E, D34G
notes: as for B6
B8: H18L6_LC_G34T mAb, v40209 (antibody, human IgG1, kappa, V domains shown)
VH: B1 VH
VL: B1 VL with D34T
notes: as for B6
B9: H18L6_LC_G34S mAb, v40210 (antibody, human IgG1, kappa, V domains shown)
VH: B1 VH
VL: B1 VL with D34S
notes: as for B6
B10: H18L6_LC_G34V mAb, v40211 (antibody, human IgG1, kappa, V domains shown)
VH: B1 VH
VL: B1 VL with D34V
notes: as for B6
B11: codrituzumab (v37575) (antibody, human IgG1, kappa, V domains shown)
VH: QVQLVQSGAEVKKPGASVKVSCKASGYTFTDYEMHWVRQAPGQGLEWMGALDPKTGDTAYSQKFKGRVTLTADKSTSTAYMELSSLTSEDTAVYYCTRFYSYTYWGQGTLVTVSS
VL: DVVMTQSPLSLPVTPGEPASISCRSSQSLVHSNRNTYLHWYLQKPGQSPQLLIYKVSNRFSGVPDRFSGSGSGTDFTLKISRVEAEDVGVYYCSQNTHVPPTFGQGTKLEIKR
notes: also called GC33; RG-7686
B12: H18L6_LC_N33A mAb, v40219 (antibody, human IgG1, kappa, V domains shown)
VH: B1 VH
VL: B1 VL with N33A, D34G
notes: as for B6
B13: H18L6_LC_N33H mAb, v40218 (antibody, human IgG1, kappa, V domains shown)
VH: B1 VH
VL: B1 VL with N33H, D34G
notes: as for B6
B14: H18L6_LC_N33V mAb, v40215 (antibody, human IgG1, kappa, V domains shown)
VH: B1 VH
VL: B1 VL with N33V, D34G
notes: as for B6
B15: H18L6_LC_N33T mAb, v40214 (antibody, human IgG1, kappa, V domains shown)
VH: B1 VH
VL: B1 VL with N33T, D34G
notes: as for B6
B16: H18L6_LC_N33Q mAb, v40220 (antibody, human IgG1, kappa, V domains shown)
VH: B1 VH
VL: B1 VL with N33Q, D34G
notes: as for B6
B17: H18L6_LC_N33K mAb, v40217 (antibody, human IgG1, kappa, V domains shown)
VH: B1 VH
VL: B1 VL with N33K, D34G
notes: as for B6
B18: H18L6_LC_N33R mAb, v40216 (antibody, human IgG1, kappa, V domains shown)
VH: B1 VH
VL: B1 VL with N33R, D34G
notes: as for B6
B19: H18L6_LC_N33D mAb, v40222 (antibody, human IgG1, kappa, V domains shown)
VH: B1 VH
VL: B1 VL with N33D, D34G
notes: as for B6
B20: H18L6_LC_N33S mAb, v40221 (antibody, human IgG1, kappa, V domains shown)
VH: B1 VH
VL: B1 VL with N33S, D34G
notes: as for B6

Substitutions are numbered along the chain they refer to.
For JHH-5 Internalization (MFI) in this document: test concentration or dose not given here.
For JHH-7 Internalization (MFI) in this document: test concentration or dose not given here.

The target in the first assay is T1, recombinant human GPC3 (glypican-3) (human, UniProt P51654 25-559).
T1 construct: also called huGPC3; hGPC3
Nature of the assay: SPR (Biacore T200), antibody captured by anti-Fc, GPC3 injected.
Description: (§1) CM5 Series S sensor chip, Biacore™ amine coupling kit (NHS, EDC and 1 M ethanolamine), and 10 mM sodium acetate buffers were purchased from Cytiva Life Sciences (Mississauga, ON, Canada). PBS running buffer with 0.05% Tween20 (PBST) was purchased from Teknova Inc. (Hollister, CA). Antigens: recombinant human and cynomolgus GPC3 was purchased from ACROBiosystems (Newark, DE) and SEC purified on a Superdex 200 10/300 GL column (Cytiva) in PBST running buffer at 0.8 mL/min.
(§2) Screening of the antibodies for binding to GPC3 antigen was conducted via anti-Fc capture of antibodies, followed by the injection of five concentrations of GPC3. The anti-Fc surface was prepared on a CM5 Series S sensor chip by standard amine coupling methods as described by the manufacturer (Cytiva Life Sciences, Mississauga, ON, Canada). […] Approximately 150-400 RUs of each antibody (5-20 μg/mL) were captured on the goat anti-human IgG surface by injecting at 10 μL/min for 60s. Using single-cycle kinetics, five concentrations of a two-fold dilution series of human or cynomolgus GPC3 starting at 40 nM, 20 nM, 10 nM, or 5 nM depending on the antibody, with a blank buffer control were injected at 20 μL/min for 180s of contact time, followed by 180 s dissociation phase, resulting in sensorgrams with a buffer blank reference. The anti-Fc surface was regenerated to prepare for the next injection cycle by one pulse of 10 mM glycine/HCl pH 1.5 for 120 s at 40 μL/min. Blank-subtracted sensorgrams were analyzed and fit to the 1:1 Langmuir binding model using Biacore™ T200 Evaluation Software v3.2.
As to B1, the “Avg % binding huGPC3 (RU observed/theoretical)” value turned out to be 44.1%.

For B2, the “Avg % binding huGPC3 (RU observed/theoretical)” value worked out at 42%.

As to B3, the “Avg % binding huGPC3 (RU observed/theoretical)” value is 43%.

Regarding B4, the “Avg % binding huGPC3 (RU observed/theoretical)” value amounted to 43.5%.

Consider B5, for which the “Avg % binding huGPC3 (RU observed/theoretical)” value amounted to 51.9%.

The target of another assay is T2, human glypican-3 (GPC3) (human, UniProt P51654 25-554).
T2 construct: Endogenous on JHH-7, JHH-5, HepG2 and NCI-H446 tumour cells, or transiently expressed on CHO-S cells from a pTT5 plasmid; also called hGPC3; huGPC3
Nature of the assay: flow cytometry on CHO-S cells transfected with human GPC3.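 Also: antibody binding to transiently transfected CHO-S cells after 24 hours at 4 °C, read as geometric mean fluorescence of anti-human AF647 in live cells, fitted against antibody concentration.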
Description: (§3) Briefly, CHO—S cells were transiently transfected for −24 hours with a pTT5-based expression plasmid encoding human GPC3 or cynomolgus monkey GPC3, 0.5 μg DNA per 1 million cells, using the Neon™ Transfection System (Thermo Fisher Scientific Corp., Waltham, MA), to transiently express human or cynomolgus monkey GPC3. Cells transfected with GFP were used as negative transfection controls. Following transfection, cells were seeded at 50,000 cells/well in V-bottom 96-well plates and treated with antibody for 24 hours at 4° C. to prevent internalization. […] Following incubation and washing, fluorescence was detected by flow cytometry on a BD LSRFortessa™ Cell Analyzer (BD Biosciences, Franklin Lake, NJ) with 1,000 minimum events collected per well. AF647/APC-A GeoMean (fluorescence signal geometric mean, proportional to anti-Human AF647 binding) in live cell population was plotted against antibody concentration using GraphPad Prism Version 9 (GraphPad Software, San Diego, CA). The Bmax and Kd values were derived from the “Specific binding with Hill slope” nonlinear regression curve fit in GraphPad Prism Version 9.
Consider B6, for which the “Bmax (MFI)” value amounted to 2460 MFI and the affinity, expressed as Kd, was 0.1 nM.

As for B7, the “Bmax (MFI)” value is 1860 MFI and the affinity, expressed as Kd, was 0.25 nM.

B8: the “Bmax (MFI)” value was found to be 2320 MFI and binding was put at a Kd of 0.11 nM.

Regarding B9, the “Bmax (MFI)” value stood at 2360 MFI and binding was characterised by a dissociation constant (Kd) of 0.06 nM.

For the molecule B10, the “Bmax (MFI)” value stood at 2100 MFI and binding was put at a Kd of 0.11 nM.

B11: the “Bmax (MFI)” value worked out at 2660 MFI and the Kd was determined as 0.08 nM.

In another assay the target is T2, human glypican-3 (GPC3). Nature of the assay: cell-based or functional assay.
In the case of B6, the “JHH-5 Internalization (MFI)” value was determined as 9170 MFI and the “JHH-7 Internalization (MFI)” value came to 7320 MFI.

For the molecule B7, the “JHH-5 Internalization (MFI)” value is 1200 MFI and the “JHH-7 Internalization (MFI)” value was determined as 1220 MFI.

As for B8, the “JHH-5 Internalization (MFI)” value was 9280 MFI and the “JHH-7 Internalization (MFI)” value is 9040 MFI.

For B9, the “JHH-5 Internalization (MFI)” value turned out to be 8950 MFI and the “JHH-7 Internalization (MFI)” value is 8900 MFI.

On to B10, for which the “JHH-5 Internalization (MFI)” value stood at 3560 MFI and the “JHH-7 Internalization (MFI)” value was determined as 3330 MFI.

For B11, the “JHH-5 Internalization (MFI)” value was 8770 MFI and the “JHH-7 Internalization (MFI)” value was determined as 6560 MFI.

In the next assay the target is T3, recombinant cynomolgus GPC3 (glypican-3) (cynomolgus monkey, UniProt A0A2K5VK50 24-558).
T3 construct: also called cynoGPC3
Nature of the assay: SPR (Biacore T200), antibody captured by anti-Fc, GPC3 injected, single-cycle kinetics, 1:1 fit; average.
Description: as §1, §2
As for B1, the Kd came out at 11.5 nM.

As to B2, the dissociation constant (Kd) was determined as 7.67 nM.

For B3, the dissociation constant (Kd) amounted to 12.5 nM.

As for B4, the Kd is 8.79 nM.

For B5, the Kd was 4.54 nM.

A further assay deals with T3, recombinant cynomolgus GPC3 (glypican-3). Nature of the assay: SPR; Kd on human GPC3 divided by Kd on cynomolgus GPC3.
Description: as §1, §2
With B1, the “Kd Fold difference (hu/cyno)” value is 1.2 fold.

Regarding B2, the “Kd Fold difference (hu/cyno)” value turned out to be 1.55 fold.

As for B3, the “Kd Fold difference (hu/cyno)” value is 1.19 fold.

As for B4, the “Kd Fold difference (hu/cyno)” value stood at 1.19 fold.

The target in the next assay is T1, recombinant human GPC3 (glypican-3). As to the kind of experiment: SPR (Biacore T200), antibody captured by anti-Fc, GPC3 injected, single-cycle kinetics, 1:1 fit; average.
Description: as §1, §2
Regarding B1, the Kd is 13.7 nM.

In the case of B2, the dissociation constant (Kd) was determined as 11.9 nM.

Turning to B3, the Kd turned out to be 14.9 nM.

With B4, the Kd turned out to be 10.4 nM.

Regarding B5, the dissociation constant Kd was found to be 7.14 nM.

For another assay, the target named is T4, cynomolgus monkey glypican-3 (GPC3) (cynomolgus monkey, UniProt A5A6P7 25-554 (Pan troglodytes entry)).
T4 construct: Transiently expressed on CHO-S cells; also called cynoGPC3; CynoGPC3-CHO
As to the kind of experiment: flow cytometry on CHO-S cells transfected with cynomolgus GPC3.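 Also: antibodies incubated 24 h at 4 °C with transiently transfected cells, binding read as AF647 geometric mean fluorescence of live cells, GFP-transfected cells as negative control, Hill-slope specific-binding fit.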
Description: as §3
In the case of B6, the “Bmax (MFI)” value worked out at 2990 MFI and the Kd came out at 0.14 nM.

Take B7: the “Bmax (MFI)” value is 2320 MFI and the equilibrium dissociation constant (Kd) came to 0.22 nM.

B8: the “Bmax (MFI)” value turned out to be 2840 MFI and the Kd is 0.14 nM.

For B9, the “Bmax (MFI)” value stood at 2970 MFI and the Kd stood at 0.09 nM.

For the molecule B10, the “Bmax (MFI)” value was determined as 2640 MFI and the dissociation constant Kd was 0.17 nM.

Take B11: the “Bmax (MFI)” value stood at 3280 MFI and binding was put at a Kd of 0.09 nM.

The next assay deals with T2, human glypican-3 (GPC3). Nature of the assay: flow cytometry on JHH-5 cells (GPC3-mid).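 Also: antibody binding to cells at 4 °C for 24 h, detected with anti-human AF647 as geometric mean fluorescence of live cells versus antibody concentration, fitted by specific binding with Hill slope.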
Description: (§4) Briefly, cells were seeded at 50,000 cells/well in V-bottom 96-well plates and treated with antibody for 24 hours at 4° C. to prevent internalization. […] Following incubation and washing, fluorescence was detected by flow cytometry on a BD LSRFortessa™ Cell Analyzer (BD Biosciences, Franklin Lake, NJ) with 1,000 minimum events collected per well. AF647/APC-A GeoMean (fluorescence signal geometric mean, proportional to anti-Human AF647 binding) in live cell population was plotted against antibody concentration using GraphPad Prism Version 9 (GraphPad Software, San Diego, CA). The Bmax, Curve Hill Slope (h) and Kd values were derived from the “Specific binding with Hill slope” nonlinear regression curve fit in GraphPad Prism Version 9.
Take B6: the “Bmax (MFI)” value was found to be 4580 MFI and the Kd is 0.16 nM.

B7: the “Bmax (MFI)” value was 1940 MFI and the equilibrium dissociation constant (Kd) was 3.39 nM.

B8: the “Bmax (MFI)” value was determined as 4130 MFI and the Kd is 0.11 nM.

Regarding B9, the “Bmax (MFI)” value amounted to 4140 MFI and the dissociation constant Kd worked out at 0.1 nM.

In the case of B10, the “Bmax (MFI)” value came out at 2940 MFI and binding was characterised by a dissociation constant (Kd) of 0.24 nM.

Regarding B11, the “Bmax (MFI)” value was 5590 MFI and binding was put at a Kd of 0.19 nM.

The next assay deals with T2, human glypican-3 (GPC3). As to the kind of experiment: flow cytometry on JHH-7 cells (GPC3-high).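 Also: antibody binding at 4 °C for 24 h, detected with anti-human AF647 secondary, geometric mean fluorescence of live cells versus antibody concentration, fitted as specific binding with Hill slope.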
Description: as §4
Turning to B6, the “Bmax (MFI)” value stood at 12500 MFI and the Kd was 0.43 nM.

Consider B12, for which the “Bmax (MFI)” value came out at 7870 MFI and the dissociation constant (Kd) worked out at 0.62 nM.

In the case of B13, the “Bmax (MFI)” value came out at 8070 MFI and the equilibrium dissociation constant (Kd) is 0.77 nM.

Consider B14, for which the “Bmax (MFI)” value amounted to 9540 MFI and the Kd turned out to be 1.01 nM.

In the case of B8, the “Bmax (MFI)” value came out at 10900 MFI and the affinity, expressed as Kd, was 0.42 nM.

Consider B15, for which the “Bmax (MFI)” value was found to be 9990 MFI and the Kd turned out to be 0.75 nM.

Regarding B16, the “Bmax (MFI)” value was 7220 MFI and binding was put at a Kd of 0.67 nM.

For B9, the “Bmax (MFI)” value came to 10600 MFI and binding was put at a Kd of 0.42 nM.

With B17, the “Bmax (MFI)” value was determined as 9230 MFI and the equilibrium dissociation constant (Kd) amounted to 0.56 nM.

Regarding B18, the “Bmax (MFI)” value was found to be 9650 MFI and the equilibrium dissociation constant (Kd) was 0.67 nM.

As to B19, the Kd was more than 47 nM.

Regarding B10, the “Bmax (MFI)” value stood at 7420 MFI and the affinity, expressed as Kd, was 0.4 nM.

Regarding B20, the “Bmax (MFI)” value came out at 7220 MFI and the affinity, expressed as Kd, was 0.79 nM.

As to B11, the “Bmax (MFI)” value came out at 14800 MFI and the Kd amounted to 0.31 nM.
